# Test results as given in patent US20220204580A1 (AstraZeneca / MedImmune, published 2022).
# Numbered stars: 1 amine (or outer) side, 2 acyl side, 3 side chain; on linkers, the order of the positions; unused ones are H or OH. Bridge positions count the residues as written; N and C are the ends. Square brackets hold non-standard residues; d marks the D form. Side chains are listed from the residue outwards. Ends that are not written are not given here. * marks the point of attachment. C18 diacid = O=C(O)CCCCCCCCCCCCCCCCC(=O)*; γGlu = O=C(O)[C@H](CCC(=O)[*:2])N[*:1]; αMeF = C[C@](N)(Cc1ccccc1)C(=O)O; Dab = NCC[C@H](N)C(=O)O; Aib = CC(C)(N)C(=O)O
# T1: human amylin receptor (calcitonin receptor co-expressed with receptor activity modifying protein, RAMP3) (human, UniProt P30988 25-474; O60896 24-148)
# T1 sequence (looked up) 1: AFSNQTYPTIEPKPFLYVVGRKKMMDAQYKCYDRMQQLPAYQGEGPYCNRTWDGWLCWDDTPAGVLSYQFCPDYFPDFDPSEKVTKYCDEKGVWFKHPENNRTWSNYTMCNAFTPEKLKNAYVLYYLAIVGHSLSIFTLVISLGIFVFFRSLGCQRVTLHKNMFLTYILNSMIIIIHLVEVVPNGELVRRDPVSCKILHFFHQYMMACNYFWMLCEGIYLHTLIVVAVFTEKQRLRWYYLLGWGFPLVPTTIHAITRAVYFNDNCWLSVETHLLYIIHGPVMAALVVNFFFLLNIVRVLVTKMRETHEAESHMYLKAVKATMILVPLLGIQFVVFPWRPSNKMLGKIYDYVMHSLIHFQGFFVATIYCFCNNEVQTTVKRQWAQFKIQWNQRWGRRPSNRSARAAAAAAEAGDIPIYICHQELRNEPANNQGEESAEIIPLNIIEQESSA
# T1 sequence (looked up) 2: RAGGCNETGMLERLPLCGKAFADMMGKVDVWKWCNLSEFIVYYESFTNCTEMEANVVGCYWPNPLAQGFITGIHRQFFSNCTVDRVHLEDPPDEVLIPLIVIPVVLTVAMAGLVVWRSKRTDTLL
# T2: human calcitonin receptor (human, UniProt P30988 25-474)
# T2 sequence (looked up): T1 sequence (looked up) 1
# T3: rat calcitonin receptor (rat, UniProt P32214 25-516)
# T3 sequence (looked up): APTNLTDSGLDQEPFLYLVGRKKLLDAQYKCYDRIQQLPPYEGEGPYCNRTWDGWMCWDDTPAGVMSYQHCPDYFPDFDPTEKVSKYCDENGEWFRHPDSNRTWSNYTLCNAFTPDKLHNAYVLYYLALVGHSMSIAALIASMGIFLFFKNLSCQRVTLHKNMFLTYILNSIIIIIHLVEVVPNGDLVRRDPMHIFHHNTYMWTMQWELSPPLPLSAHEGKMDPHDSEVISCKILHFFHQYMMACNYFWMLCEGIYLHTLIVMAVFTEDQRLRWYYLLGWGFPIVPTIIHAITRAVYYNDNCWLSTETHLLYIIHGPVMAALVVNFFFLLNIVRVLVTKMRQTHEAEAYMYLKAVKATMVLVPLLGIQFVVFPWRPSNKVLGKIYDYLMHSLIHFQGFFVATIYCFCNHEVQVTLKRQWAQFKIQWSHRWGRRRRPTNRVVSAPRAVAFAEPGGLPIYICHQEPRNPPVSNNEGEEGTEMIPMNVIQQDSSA
# T4: rat amylin receptor (calcitonin receptor co-expressed with receptor activity modifying protein, RAMP3) (rat, UniProt P32214 25-516; Q9JJ73 23-147)
# T4 sequence (looked up) 1: T3 sequence (looked up)
# T4 sequence (looked up) 2: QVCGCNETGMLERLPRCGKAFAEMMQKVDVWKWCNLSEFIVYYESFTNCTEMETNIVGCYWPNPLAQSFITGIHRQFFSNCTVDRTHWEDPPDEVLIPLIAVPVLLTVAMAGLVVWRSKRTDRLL
# B1: Peptide 31 (SEQ ID NO: 31) (peptide)
# peptide: K([γGlu-C18 diacid])KCNTATCATQRLANFLVHSS[Dab]NFG[Aib]ILPPTNVGSNTY-NH2
# modifications: disulfide 3-8; N-terminus assumed
# SMILES: CC[C@H](C)[C@H](NC(=O)C(C)(C)NC(=O)CNC(=O)[C@H](Cc1ccccc1)NC(=O)[C@H](CC(N)=O)NC(=O)[C@H](CCN)NC(=O)[C@H](CO)NC(=O)[C@H](CO)NC(=O)[C@H](Cc1c[nH]cn1)NC(=O)[C@@H](NC(=O)[C@H](CC(C)C)NC(=O)[C@H](Cc1ccccc1)NC(=O)[C@H](CC(N)=O)NC(=O)[C@H](C)NC(=O)[C@H](CC(C)C)NC(=O)[C@H](CCCNC(=N)N)NC(=O)[C@H](CCC(N)=O)NC(=O)[C@@H](NC(=O)[C@H](C)NC(=O)[C@@H]1CSSC[C@H](NC(=O)[C@H](CCCCN)NC(=O)[C@@H](N)CCCCNC(=O)CC[C@H](NC(=O)CCCCCCCCCCCCCCCCC(=O)O)C(=O)O)C(=O)N[C@@H](CC(N)=O)C(=O)N[C@@H]([C@@H](C)O)C(=O)N[C@@H](C)C(=O)N[C@@H]([C@@H](C)O)C(=O)N1)[C@@H](C)O)C(C)C)C(=O)N[C@@H](CC(C)C)C(=O)N1CCC[C@H]1C(=O)N1CCC[C@H]1C(=O)N[C@H](C(=O)N[C@@H](CC(N)=O)C(=O)N[C@H](C(=O)NCC(=O)N[C@@H](CO)C(=O)N[C@@H](CC(N)=O)C(=O)N[C@H](C(=O)N[C@@H](Cc1ccc(O)cc1)C(N)=O)[C@@H](C)O)C(C)C)[C@@H](C)O
# B2: Peptide 34 (SEQ ID NO: 34) (peptide)
# peptide: K([γGlu-C18 diacid])KCNTATCATQRLA[Dab]FLVHSSNNFGPILPPTEVGSNTY-NH2
# modifications: disulfide 3-8; N-terminus assumed
# SMILES: CC[C@H](C)[C@H](NC(=O)[C@@H]1CCCN1C(=O)CNC(=O)[C@H](Cc1ccccc1)NC(=O)[C@H](CC(N)=O)NC(=O)[C@H](CC(N)=O)NC(=O)[C@H](CO)NC(=O)[C@H](CO)NC(=O)[C@H](Cc1c[nH]cn1)NC(=O)[C@@H](NC(=O)[C@H](CC(C)C)NC(=O)[C@H](Cc1ccccc1)NC(=O)[C@H](CCN)NC(=O)[C@H](C)NC(=O)[C@H](CC(C)C)NC(=O)[C@H](CCCNC(=N)N)NC(=O)[C@H](CCC(N)=O)NC(=O)[C@@H](NC(=O)[C@H](C)NC(=O)[C@@H]1CSSC[C@H](NC(=O)[C@H](CCCCN)NC(=O)[C@@H](N)CCCCNC(=O)CC[C@H](NC(=O)CCCCCCCCCCCCCCCCC(=O)O)C(=O)O)C(=O)N[C@@H](CC(N)=O)C(=O)N[C@@H]([C@@H](C)O)C(=O)N[C@@H](C)C(=O)N[C@@H]([C@@H](C)O)C(=O)N1)[C@@H](C)O)C(C)C)C(=O)N[C@@H](CC(C)C)C(=O)N1CCC[C@H]1C(=O)N1CCC[C@H]1C(=O)N[C@H](C(=O)N[C@@H](CCC(=O)O)C(=O)N[C@H](C(=O)NCC(=O)N[C@@H](CO)C(=O)N[C@@H](CC(N)=O)C(=O)N[C@H](C(=O)N[C@@H](Cc1ccc(O)cc1)C(N)=O)[C@@H](C)O)C(C)C)[C@@H](C)O
# B3: Peptide 33 (SEQ ID NO: 33) (peptide)
# peptide: K([γGlu-C18 diacid])KCNTATCATQRLA[Dab]FLVHSSNNFGPILPPTNVGSNTY-NH2
# modifications: disulfide 3-8; N-terminus assumed
# SMILES: CC[C@H](C)[C@H](NC(=O)[C@@H]1CCCN1C(=O)CNC(=O)[C@H](Cc1ccccc1)NC(=O)[C@H](CC(N)=O)NC(=O)[C@H](CC(N)=O)NC(=O)[C@H](CO)NC(=O)[C@H](CO)NC(=O)[C@H](Cc1c[nH]cn1)NC(=O)[C@@H](NC(=O)[C@H](CC(C)C)NC(=O)[C@H](Cc1ccccc1)NC(=O)[C@H](CCN)NC(=O)[C@H](C)NC(=O)[C@H](CC(C)C)NC(=O)[C@H](CCCNC(=N)N)NC(=O)[C@H](CCC(N)=O)NC(=O)[C@@H](NC(=O)[C@H](C)NC(=O)[C@@H]1CSSC[C@H](NC(=O)[C@H](CCCCN)NC(=O)[C@@H](N)CCCCNC(=O)CC[C@H](NC(=O)CCCCCCCCCCCCCCCCC(=O)O)C(=O)O)C(=O)N[C@@H](CC(N)=O)C(=O)N[C@@H]([C@@H](C)O)C(=O)N[C@@H](C)C(=O)N[C@@H]([C@@H](C)O)C(=O)N1)[C@@H](C)O)C(C)C)C(=O)N[C@@H](CC(C)C)C(=O)N1CCC[C@H]1C(=O)N1CCC[C@H]1C(=O)N[C@H](C(=O)N[C@@H](CC(N)=O)C(=O)N[C@H](C(=O)NCC(=O)N[C@@H](CO)C(=O)N[C@@H](CC(N)=O)C(=O)N[C@H](C(=O)N[C@@H](Cc1ccc(O)cc1)C(N)=O)[C@@H](C)O)C(C)C)[C@@H](C)O
# B4: Peptide 35 (SEQ ID NO: 35) (peptide)
# peptide: K([γGlu-C18 diacid])KCNTATCATQRLANFLVHSS[Aib]NFGPILPPTNVGSNTY-NH2
# modifications: disulfide 3-8; N-terminus assumed
# SMILES: CC[C@H](C)[C@H](NC(=O)[C@@H]1CCCN1C(=O)CNC(=O)[C@H](Cc1ccccc1)NC(=O)[C@H](CC(N)=O)NC(=O)C(C)(C)NC(=O)[C@H](CO)NC(=O)[C@H](CO)NC(=O)[C@H](Cc1c[nH]cn1)NC(=O)[C@@H](NC(=O)[C@H](CC(C)C)NC(=O)[C@H](Cc1ccccc1)NC(=O)[C@H](CC(N)=O)NC(=O)[C@H](C)NC(=O)[C@H](CC(C)C)NC(=O)[C@H](CCCNC(=N)N)NC(=O)[C@H](CCC(N)=O)NC(=O)[C@@H](NC(=O)[C@H](C)NC(=O)[C@@H]1CSSC[C@H](NC(=O)[C@H](CCCCN)NC(=O)[C@@H](N)CCCCNC(=O)CC[C@H](NC(=O)CCCCCCCCCCCCCCCCC(=O)O)C(=O)O)C(=O)N[C@@H](CC(N)=O)C(=O)N[C@@H]([C@@H](C)O)C(=O)N[C@@H](C)C(=O)N[C@@H]([C@@H](C)O)C(=O)N1)[C@@H](C)O)C(C)C)C(=O)N[C@@H](CC(C)C)C(=O)N1CCC[C@H]1C(=O)N1CCC[C@H]1C(=O)N[C@H](C(=O)N[C@@H](CC(N)=O)C(=O)N[C@H](C(=O)NCC(=O)N[C@@H](CO)C(=O)N[C@@H](CC(N)=O)C(=O)N[C@H](C(=O)N[C@@H](Cc1ccc(O)cc1)C(N)=O)[C@@H](C)O)C(C)C)[C@@H](C)O
# B5: Peptide 32 (SEQ ID NO: 32) (peptide)
# peptide: K([γGlu-C18 diacid])KCNTATCATQRLA[Dab]FLVHSSNN[αMeF]GPILPPTEVGSNTY-NH2
# modifications: disulfide 3-8; N-terminus assumed
# SMILES: CC[C@H](C)[C@H](NC(=O)[C@@H]1CCCN1C(=O)CNC(=O)[C@](C)(Cc1ccccc1)NC(=O)[C@H](CC(N)=O)NC(=O)[C@H](CC(N)=O)NC(=O)[C@H](CO)NC(=O)[C@H](CO)NC(=O)[C@H](Cc1c[nH]cn1)NC(=O)[C@@H](NC(=O)[C@H](CC(C)C)NC(=O)[C@H](Cc1ccccc1)NC(=O)[C@H](CCN)NC(=O)[C@H](C)NC(=O)[C@H](CC(C)C)NC(=O)[C@H](CCCNC(=N)N)NC(=O)[C@H](CCC(N)=O)NC(=O)[C@@H](NC(=O)[C@H](C)NC(=O)[C@@H]1CSSC[C@H](NC(=O)[C@H](CCCCN)NC(=O)[C@@H](N)CCCCNC(=O)CC[C@H](NC(=O)CCCCCCCCCCCCCCCCC(=O)O)C(=O)O)C(=O)N[C@@H](CC(N)=O)C(=O)N[C@@H]([C@@H](C)O)C(=O)N[C@@H](C)C(=O)N[C@@H]([C@@H](C)O)C(=O)N1)[C@@H](C)O)C(C)C)C(=O)N[C@@H](CC(C)C)C(=O)N1CCC[C@H]1C(=O)N1CCC[C@H]1C(=O)N[C@H](C(=O)N[C@@H](CCC(=O)O)C(=O)N[C@H](C(=O)NCC(=O)N[C@@H](CO)C(=O)N[C@@H](CC(N)=O)C(=O)N[C@H](C(=O)N[C@@H](Cc1ccc(O)cc1)C(N)=O)[C@@H](C)O)C(C)C)[C@@H](C)O
# Target: T1, human amylin receptor (calcitonin …)
# Assay: cell-based or functional assay
EC50 (cAMP production) [nM],Ratio (EC50 hCTR / EC50 hAMYR3),Binder
0.349,4,B1
0.877,20,B2
0.598,26,B3
0.259,55,B4
0.742,15,B5

# Target: T2, human calcitonin receptor
# Assay: cell-based or functional assay
row,EC50 (cAMP production) [nM],Binder
1,1.28,B1
2,17.7,B2
3,15.8,B3
4,14.2,B4
5,11.1,B5

# Target: T3, rat calcitonin receptor
# Assay: cell-based or functional assay
row,EC50 (cAMP production) [nM],Binder
1,0.514,B4

# Target: T4, rat amylin receptor (calcitonin …)
# Assay: cell-based or functional assay
row,EC50 (cAMP production) [nM],Binder
1,0.0059,B4
